Experimental data published in US20170119877A1.

Molecular target: murine VISTA (V-domain Ig suppressor of T cell activation) on spleen cells / Ly6C+CD11b+ MDSCs of B6 mice (mouse) (UniProt Q9D659)
Test: cell-based or functional assay

UniProt Q9D659, sequence (Q9D659 33-308): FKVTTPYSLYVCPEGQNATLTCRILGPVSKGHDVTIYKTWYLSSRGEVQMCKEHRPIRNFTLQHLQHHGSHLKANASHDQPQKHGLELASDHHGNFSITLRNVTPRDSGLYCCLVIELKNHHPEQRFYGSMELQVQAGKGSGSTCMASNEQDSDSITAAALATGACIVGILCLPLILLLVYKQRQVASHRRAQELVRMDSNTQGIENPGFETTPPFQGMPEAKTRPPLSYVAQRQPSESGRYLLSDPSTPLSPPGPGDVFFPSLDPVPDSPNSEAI

blocking of MDSC suppression of B-cell responsiveness (3H-thymidine incorporation, α-CD40 + IL-4 stimulation): 50%
blocking of MDSC suppression of B-cell responsiveness, corrected for control HIg: 55%
blocking of MDSC suppression of B-cell responsiveness, over several independent experiments: 65%
Substance: anti-VISTA mAb (13F3) (antibody)
